This is an account of results in the DeepSol protein solubility set.

The data set in a line: soluble on expression in E. coli; label from the status in PepcDB or PDB records.
With “MRYLSNLLCLTLTFIVCFGAERDADEEAYVLMNLLKQSIDMDQTEALPGFVSRDFTYDTCKGIWNRDKYMEYLKVFSSRPDGGMQPMSTDWKVTNAHFNDNTLYFNIHNYNQHLAIYPDLEFEAKKIGKDERYILTRGKISKCGTLEKEY”, the “soluble on expression in E. coli” value is listed as “not soluble”.
As for “MSAAEEVDGLGVVRPHYGSVLDNERLTAEEMDERRRQNVAYEYLCHLEEAKRWMEACLGEDLPPTTELEEGLRNGVYLAKLGNFFSPKVVSLKKIYDREQTRYKATGLHFRHTDNVIQWLNAMDEIGLPKIFYPETTDIYDRKNMPRCIYCIHALSLYLFKLGLAPQIQDLYGKVDFTEEEINNMKIELEKYGIQMPAFSKIGGILANELSVDEAALHAAVIAINEAIDRRVAADTFTALKNPNAMLVNLEEGLAPTYQDVLYQAKQDKMTNAKNRTENSDRERDVYEELLTQAEIQGNVNKVNTSSALADISLALEQGCAVTLLKALQSLALGLRGLQTQNSDWYMKQLQSDLQQKRQSGQTDPLQKEEVQAGVDAANSAAQQYQRRKRPLAPGHRSVQGRAVVALCH”, the “soluble on expression in E. coli” value is on record as “soluble”.
Consider “MSAATKKRYITNKVGSEFYELVDEDIIAQVRQSRGNNLHEVLDQNGDSYVVSMPTKFRKSVWLRRDQFVVVRPITEGDKVKGEIEYILDQDNVLYIRELGKWPTCFEENALKMTREAKRGQTSDKMIDDDMLPPSESEEEDESEGEETYDEDDVDDEEEEEFDTYNPNRMQAPSK”, for which the “soluble on expression in E. coli” value is “not soluble”.
With “MSADNLLLDFTSPGAIPPDPAEVVRRVVDETQTTMRALESLLENERIEDMTGWRLLAMFYLATDRLNDLAKIEKQYKSITGVSLSADLKQKYPQWFNGEAVSHPVVFEIPKKITAAALPDSIIIQRGQCSPGGILLDFSQVQEIDNDGLKKLAQLFSSLAQENTRPKLRQADRFITCLQNKAETGTGTRAIWDVLFAYERFRDDREAFEEKAIKFAVLYGISPPSWE”, the “soluble on expression in E. coli” value is “not soluble”.
Turning to “MSAEVTLHDNIHYDLSADCQHCFGLCCVALPYAKSADFAFDKDGGTPCRNLQSNYQCSIHKDLREKGFRGCSAYECFGAGQKVSQITYEGKDWRNSPETANQMFDVFPIMQQLHEMLWYLHEALSIDIAKPIHSELRTTFEKIERLTRLSKERLLTLQVDEHRAEVNEWLLKTSELVRAQARHPKLPKKVSRGSVLIGAKLKGLDLRGANLRGALLIAADLRNADLRMTDFIGADMRDADLSGADLTGSIFLTQAQVNAANGDSNTKLPLSVRTPAHWKLEHHHHHH”, the “soluble on expression in E. coli” value is on record as “not soluble”.
Turning to “MSAIENFDAHTPMMQQYLRLKAQHPEILLFYRMGDFYALFYDDAKRASQLLDISLTKRGASAGEPIPMAGIPYHAVENYLAKLVNQGESVAICEQIGDPATSKGPVERKVVRIVTPGTISDEALLQERQDNLLAAIWQDSKGFGYATLDISSGRFRLSEPADRETMAAELQRTNPAELLYAEDFAEMSLIEGRRGLRRRPLWEFEIDTARQQLNLQFGTRDLVGFGVENAPRGLCAAGCLLQYAKDTQRTTLPHIRSITMEREQDSIIMDAATRRNLEITQNLAGGAENTLASVLDCTVTPMGSRMLKRWLHMPVRDTRVLLERQQTIGALQDFTAGLQPVLRQVGDLERILARLALRTARPRDLARMRHAFQQLPELRAQLETVDSAPVQALREKMGEFAELRDLLERAIIDTPPVLVRDGGVIASGYNEELDEWRALADGATDYLERLEVRERERTGLDTLKVGFNAVHGYYIQISRGQSHLAPINYMRRQTLKNAERYIIPELKEYEDKVLTSKGKALALEKQLYEELFDLLLPHLEALQQSASALAELDVLVNLAERAYTLNYTCPTFIDKPGIRITEGRHPVVEQVLNEPFIANPLNLSPQRRMLIITGPNMGGKSTYMRQTALIALMAYIGSYVPAQKVEIGPIDRIFTRVGAADDLASGRSTFMVEMTETANILHNATEYSLVLMDEIGRGTSTYDGLSLAWACAENLANKIKALTLFATHYFELTQLPEKMEGVANVHLDALEHGDTIAFMHSVQDGAASKSYGLAVAALAGVPKEVIKRARQKLRELESIS”, the “soluble on expression in E. coli” value was “soluble”.
For the sequence “MSAKNRLDVFDKKTRDVIESDLVKMRGYKRNIGSRNQEMTMKNVEKKVEQMGAKNEEMFSMISKIMQKPNSTGHLQWDSQTLADLMNKSDSFDDDQESLNMPRSSESSAMSVRNRTLERQSEPVRKSPKAAPKVKNEAGITASYVTSEMSDRRSIDEVMVRAAKNAKREEKFDLGFFKFISLAGHILESSCKHSEDQEDPSCLKCKYDRELKLEERPEMVFARNSLTIQFGRLGSIEFNALDALKMVCADRLPDVKVGASTVWQSARQDRIQQISEHQKPFDWTYTTHYKGTVTGCQVTPTTERIDMERLKRRDEILFSSSITLFEDELADHGIAQLLARVRVMRGYFFVLLRFYMRVDNVLLRVCDTRIVGNEFDGHVIREWQLREAKYGNLGHVDPEELLDVDRAWMHLPVVEEHFDRVSVDRERLF”, the “soluble on expression in E. coli” value was “not soluble”.
“MSAPTTFSVALHNETATAQLMADLALLVGPGDVITLTGDLGAGKTAAARAMIRYLADDEALEVPSPTFTLVQGYELPPFPVMHADLYRVEDESELEEIGLSPLPDATLVLIEWPERAPSALPEDRIDIALTHRPALGSNARAADITGYGKSAAQVARLKALREFLDASGYLDAMRRRMAGDASTRSYARLLRDDEIVILMNFPQRPDGAALYNGKSYSAAVHLAENVKPFVAIDEGLRAQGISAPAIHHADLDHGFLISEDFGSEGVIEGNPPRPIPERYEAATDVLAVLHGKTLPETLPLDGQSYAIPVFDTEAMLIEIGLMPEWYLPDRNAPLSEPKRAEFFAMWRELLKKPLAAPRTWIIRDYHSPNLIWLGMRTGIERVGVIDFQDTVLGPQSYDVVSLLQDARIDVPENLELTLLSRYIKARRAGDASFDPAGFAELYAIMSAQRNTRLLGTFARLNRRDGKPHYLRHQPRIWTYLQRSLAHPALSHLRDWYLANVPPPQRPSQEPAPEPPQGLEHHHHHH”: the “soluble on expression in E. coli” value is “soluble”.
In the case of “MSAQAKPRSEMTAEELAAKEDEEFNVGPLSILTNSVKNNHQVLINCRNNKKLLGRVKAFDRHCNMVLENVKEMWTEVPKTGKGKKKAKSVAKDRFISKMFLRGDSVILVVKNPLAQAE”, the “soluble on expression in E. coli” value was “not soluble”.
On to “MSASFDRYVSFQHCDWEGRSERVMQRLQRHVEAAENPFWAYFAQKRAELRDKQGLDDLRILHNYLPTLRELLEDNGDLETLEMLEDLEANLM”, for which the “soluble on expression in E. coli” value is “not soluble”.
Consider “MSASFSNNACYMDVMIEIISLRLRLAIASSDRVPLWPFPSRQYMPTRPGWSRWRHPTVVVEPMRNQNFSYHKCNNKIDSSKHISTLSH”, for which the “soluble on expression in E. coli” value is reported as “not soluble”.
The same measure for “MSASVPADLRNLRACLLCSLVKSVESFQKEGCENCEDVLHLKGDEEKVYDCTSANYDGMIAAMSNNESWVCKWQKMQRKVKGMYAISVSGVLPNNIVSELKSLGVRYKPNQRDYSTQFKK”: “not soluble”.
“MSATGPGIVVIDKPAGMTSHDVVGRCRRIFATRRVGHAGTLDPMATGVLVIGIERATKILGLLTAAPKSYAATIRLGQTTSTEDAEGQVLQSVPAKHLTIEAIDAAMERLRGEIRQVPSSVSAIKVGGRRAYRLARQGRSVQLEARPIRIDRFELLAARRRDQLIDIDVEIDCSSGTYIRALARDLGDALGVGGHVTALRRTRVGRFELDQARSLDDLAERPALSLSLDEACLLMFARRDLTAAEASAAANGRSLPAVGIDGVYAACDADGRVIALLRDEGSRTRSVAVLRPATMHPGGVPRGKLAAALEHHHHHH”: the “soluble on expression in E. coli” value is “soluble”.
Consider “MSATKSEMPADVASVTDSSAASPAFPLIGDFLEEFLKCQVCCTNYNETTKLARGLHCGHTFCTECIKTMQKYGNSAYLECPSCRAETKCDIAAVSTNFAIMELIRKCGFLGPEKPEEPPMKQAAQPQLEQTIDELIDEGYRLLIADVKADLMAKFEQLRDVSKTSTIEATKADLEVLCDSVKEAVYEADLEYSYDEEESDEDEEENEDEEDVEEEEEKPCAEKKSPAQPERSSSLVRGFQIGLSRLFRNRRIHTEHLQVDHGAIATKLETRAACTEKSDNVKK”, for which the “soluble on expression in E. coli” value was “not soluble”.
The same measure for “MSATVVDAVNAAPLSGSKEMSLEEPKKMTREDWRKKKELEEQRKLGNAPAEVDEEGKDINPHIPQYISSVPWYIDPSKRPTLKHQRPQPEKQKQFSSSGEWYKRGVKENSVITKYRKGACENCGAMTHKKKDCFERPRRVGAKFTGTNIAPDEHVQPQLMFDYDGKRDRWNGYNPEEHMKIVEEYAKVDLAKRTLKAQKLQEELASGKLVEQANSPKHQWGEEEPNSQTEKDHNSEDEDEDKYADDIDMPGQNFDSKRRITVRNLRIREDIAKYLRNLDPNSAYYDPKTRAMRENPYANAGKNPDEVSYAGDNFVRYTGDTISMAQTQLFAWEAYDKGSEVHLQADPTKLELLYKSFKVKKEDFKEQQKESILEKYGGQEHLDAPPAELLLAQTEDYVEYSRHGTVIKGQERAVACSKYEEDVKIHNHTHIWGSYWKEGRWGYKCCHSFFKYSYCTGEAGKEIVNSEECIINEITGEESVKKPQTLMELHQEKLKEEKKKKKKKKKKHRKSSSDSDDEEKKHEKLKKALNAEEARLLHVKETMQIDERKRPYNSMYETREPTEEEMEAYRMKRQRPDDPMASFLGQ”: “not soluble”.
The same measure for “MSAVMATYLLHDETDIRKKAEGIALGLTIGTWTDLPALEQEQLRKHKGEVVAIEELGESERVNAYFGKRLKRAIVKIAYPTVNFSADLPALLVTTFGKLSLDGEVRLLDLEFPDEWKRQFPGPRFGIDGIRDRVGVHNRPLLMSIFKGMIGRDLAYLTSELKKQALGGVDLVKDDEILFDSELLPFEKRITEGKAALQEVYEQTGKRTLYAVNLTGKTFALKDKAKRAAELGADVLLFNVFAYGLDVLQALREDEEIAVPIMAHPAFSGAVTPSEFYGVAPSLWLGKLLRLAGADFVLFPSPYGSVALEREQALGIARALTDDQEPFARAFPVPSAGIHPGLVPLIIRDFGLDTIVNAGGGIHGHPDGAIGGGRAFRAAIDAVLAGRPLRAAAAENEALQKAIDRWGVVEVEA”: “soluble”; for “MSCTGFWRKLASGEECGAAARLLGAVLAIPAALYGLVVRLRALAYARGLSTVRHLDRPVISVGNLTVGGTGKTPMVAYLARRLMARGKRVAVISRGYGGSLEGETRIVSDGRTIVLSAAEAGDEPVHLATSVPGLMTVIGTDRYTAGLLALEQLDPDVFILDDGYQHLRLHRDLNILLMDCNRPLGNGRTLPAGLLREPQTAVRRADLVVYTRCTGGKAPAVHGMIPSCRAGHALTGAALLPDGEVQPLAALRGLRGVACAGIAEPEGFFDALRREGLDIVAAIPFADHASYGEREVSTLREAAAGADYLITTGKDGVKLSAHLARLLPVYATVLEMRPLDPAPLEAALDKVLTHISSCKSLEHHHHHHTHISSCKSLEHHHHHHTHISSCKSLEHHHHHHTHISSCKSLEHHHHHHTHISSCKSLEHHHHHHTHISSCKSLEHHHHHHTHISSCKSLEHHHHHH”: “not soluble”.
Regarding “MSDESNPPKVILLVEDSKADSRLVQEVLKTSTIDHELIILRDGLAAMAFLQQQGEYENSPRPNLILLDLNLPKKDGREVLAEIKQNPDLKRIPVVVLTTSHNEDDVIASYELHVNCYLTKSRNLKDLFKMVQGIESFWLETVTLPAAPG”, the “soluble on expression in E. coli” value is “soluble”.
